Test results from the supplement of paper PMC7125110.
± gives the standard error. For part of these data: This sample holds only a part of the variants without activity.

B1: glmS ribozyme (parent)
chain: AUAAAAGCGCCAGAACUACAGAAAUGUAGUUGACGAGGAGGAGGUUUAUCGAAUUUUCGGCGGAUGCCUCCAAA

Experiments:
Conditions in all cases: with glucosamine-6-phosphate
glucosamine-6-phosphate [1] = variants of: B1; assay: kcat; higher = faster cleavage; RNA array
Method in brief: (§1)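 The measurements used barcoded ribozyme variants on sequenced MiSeq chips, transcribed in situ by E. coli RNA polymerase and tracked at 37 °C with a hybridised Cy3 probe. Glucosamine-6-phosphate, 40 μM to 10 mM in HEPES/KCl/Mg(OAc)2 buffer, was flowed in while tiles were imaged over ~14 h. Baseline-normalised signals, also normalised to non-cleaving reference variants, gave per-tile medians that were fit to one- or two-exponential decays for kobs. kcat and KM resulted from weighted Michaelis–Menten fits across concentrations.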

glucosamine-6-phosphate [2] = variants of: B1; assay: KM; higher = weaker cofactor use; RNA array
Method in brief: as §1

glucosamine-6-phosphate [3] = variants of: B1; assay: self-cleavage kobs at 640 uM GlcN6P; higher = faster cleavage; RNA array
Method in brief: as §1

glucosamine-6-phosphate [4] = variants of: B1; assay: self-cleavage kobs at 2500 uM GlcN6P; higher = faster cleavage; RNA array
Method in brief: as §1

glucosamine-6-phosphate [5] = variants of: B1; assay: self-cleavage kobs at 10000 uM GlcN6P; higher = faster cleavage; RNA array
Method in brief: as §1

glucosamine-6-phosphate [6] = variants of: B1; assay: self-cleavage kobs at 160 uM GlcN6P; higher = faster cleavage; RNA array
Method in brief: as §1

glucosamine-6-phosphate [7] = variants of: B1; assay: self-cleavage kobs at 40 uM GlcN6P; higher = faster cleavage; RNA array
Method in brief: as §1

| Variant | kcat (glucosamine-6-phosphate [1]) | KM (glucosamine-6-phosphate [2]) | self-cleavage kobs at 640 uM GlcN6P (glucosamine-6-phosphate [3]) | self-cleavage kobs at 2500 uM GlcN6P (glucosamine-6-phosphate [4]) | self-cleavage kobs at 10000 uM GlcN6P (glucosamine-6-phosphate [5]) | self-cleavage kobs at 160 uM GlcN6P (glucosamine-6-phosphate [6]) | self-cleavage kobs at 40 uM GlcN6P (glucosamine-6-phosphate [7]) |
| --- | --- | --- | --- | --- | --- | --- | --- |
| A12U A39C A52G | 0.000172 ± 2.4e-05 s⁻¹ | 2140 ± 680 µM | 4.67e-05 ± 1.3e-05 s⁻¹ | 8.04e-05 ± 1.8e-05 s⁻¹ | 0.00015 ± 2.7e-05 s⁻¹ |  |  |
| A6C U69A | 2.1e-05 ± 3.8e-06 s⁻¹ |  |  |  |  |  |  |
| G37C C61A | < 1e-05 s⁻¹ |  |  |  |  |  |  |
| A15G G41C | 0.000647 ± 4.6e-05 s⁻¹ | 2170 ± 310 µM | 0.000149 ± 2.7e-05 s⁻¹ | 0.00032 ± 5.7e-05 s⁻¹ | 0.000544 ± 6.2e-05 s⁻¹ | 4.44e-05 ± 1.5e-05 s⁻¹ |  |
| C16A U54C | 0.00231 ± 0.00079 s⁻¹ |  | 0.000575 ± 0.00013 s⁻¹ | 0.000967 ± 0.00025 s⁻¹ | 0.00194 ± 0.00029 s⁻¹ | 0.000102 ± 2.6e-05 s⁻¹ | 6.96e-05 ± 1.3e-05 s⁻¹ |
| A14G G35C | < 1e-05 s⁻¹ |  | < 1e-05 s⁻¹ | < 1e-05 s⁻¹ |  | < 1e-05 s⁻¹ | < 1e-05 s⁻¹ |
| U30C U56G | 0.000308 ± 7.9e-05 s⁻¹ |  | 8.86e-05 ± 1.3e-05 s⁻¹ | 0.000135 ± 1.8e-05 s⁻¹ | 0.000296 ± 3.5e-05 s⁻¹ |  |  |
| A14G A52C | 4.48e-05 ± 2.1e-06 s⁻¹ | 3920 ± 400 µM |  | 1.73e-05 ± 7.9e-06 s⁻¹ | 3.23e-05 ± 1.3e-05 s⁻¹ |  |  |
| A36U C50A | < 1e-05 s⁻¹ |  |  |  |  | < 1e-05 s⁻¹ |  |
| U45A C58G | 0.000316 ± 8.7e-05 s⁻¹ |  |  | 0.000129 ± 3.2e-05 s⁻¹ | 0.000222 ± 4.9e-05 s⁻¹ |  |  |
| A14C U31A | 0.0083 ± 0.0041 s⁻¹ |  | 0.00413 ± 0.0019 s⁻¹ | 0.00676 ± 0.0026 s⁻¹ |  | 0.00135 ± 0.00031 s⁻¹ | 0.000559 ± 0.00011 s⁻¹ |
| U46C U65G | 0.000138 ± 2.3e-05 s⁻¹ |  | 2.77e-05 ± 1.3e-05 s⁻¹ | 0.000117 ± 2.4e-05 s⁻¹ | 0.000113 ± 1.5e-05 s⁻¹ |  |  |
| G29C C67A | 0.000293 ± 7.2e-05 s⁻¹ |  | 0.000128 ± 1.9e-05 s⁻¹ | 0.000163 ± 3.2e-05 s⁻¹ | 0.000363 ± 5.2e-05 s⁻¹ | 5.79e-05 ± 1.3e-05 s⁻¹ |  |
| C10G A39G | < 1e-05 s⁻¹ |  |  |  |  | < 1e-05 s⁻¹ |  |
| C11U A15C G51U C70A | 6.95e-05 ± 2.4e-05 s⁻¹ |  |  | 0.000111 ± 3.3e-05 s⁻¹ | 5.08e-05 ± 2e-05 s⁻¹ |  | 6.91e-05 ± 1.9e-05 s⁻¹ |
| A33C G38U | < 1e-05 s⁻¹ |  | < 1e-05 s⁻¹ |  | < 1e-05 s⁻¹ | < 1e-05 s⁻¹ | < 1e-05 s⁻¹ |
| A12U A48G | 0.000185 ± 3.6e-05 s⁻¹ |  | 9.16e-05 ± 1.3e-05 s⁻¹ | 0.000246 ± 3e-05 s⁻¹ | 0.000156 ± 1.5e-05 s⁻¹ | 2.8e-05 ± 1.2e-05 s⁻¹ |  |

| Variant | kcat (glucosamine-6-phosphate [1]) | KM (glucosamine-6-phosphate [2]) | self-cleavage kobs at 640 uM GlcN6P (glucosamine-6-phosphate [3]) | self-cleavage kobs at 2500 uM GlcN6P (glucosamine-6-phosphate [4]) | self-cleavage kobs at 10000 uM GlcN6P (glucosamine-6-phosphate [5]) | self-cleavage kobs at 160 uM GlcN6P (glucosamine-6-phosphate [6]) | self-cleavage kobs at 40 uM GlcN6P (glucosamine-6-phosphate [7]) |
| --- | --- | --- | --- | --- | --- | --- | --- |
| G37C G38U | < 1e-05 s⁻¹ |  | < 1e-05 s⁻¹ | < 1e-05 s⁻¹ |  |  | < 1e-05 s⁻¹ |
| A14U A33U A42G | 9.54e-05 ± 3.1e-05 s⁻¹ |  |  | 7.08e-05 ± 1.9e-05 s⁻¹ | 7.49e-05 ± 2.6e-05 s⁻¹ |  |  |
| A52G A64G | 0.00183 ± 0.00049 s⁻¹ | 3690 ± 1500 µM | 0.00036 ± 3.9e-05 s⁻¹ | 0.000616 ± 0.0001 s⁻¹ | 0.00136 ± 0.00013 s⁻¹ | 6.03e-05 ± 9.6e-06 s⁻¹ | 2.83e-05 ± 7.3e-06 s⁻¹ |
| U47G C68G | 8.45e-05 ± 1.2e-05 s⁻¹ |  | 8.26e-05 ± 1e-05 s⁻¹ | 0.000104 ± 1.2e-05 s⁻¹ | 7.41e-05 ± 6.8e-06 s⁻¹ | 0.000166 ± 2.8e-05 s⁻¹ | 5.34e-05 ± 1e-05 s⁻¹ |
| A36U C67G C68G C71U | 6.17e-05 ± 1.7e-05 s⁻¹ |  | 0.000121 ± 3e-05 s⁻¹ | 5.55e-05 ± 1.8e-05 s⁻¹ | 5.06e-05 ± 1.6e-05 s⁻¹ |  | 4.88e-05 ± 1.9e-05 s⁻¹ |
| C61G C67A | 2.67e-05 ± 6.5e-06 s⁻¹ |  | 3.33e-05 ± 1.4e-05 s⁻¹ |  |  |  |  |
| A52U U55G | 0.000246 ± 4.9e-05 s⁻¹ | 2150 ± 980 µM | 7.12e-05 ± 1.2e-05 s⁻¹ | 0.000109 ± 1.5e-05 s⁻¹ | 0.000221 ± 2.4e-05 s⁻¹ |  |  |
| G29U U54A U65A | 0.000347 ± 8.3e-05 s⁻¹ |  | 0.000149 ± 2.1e-05 s⁻¹ | 0.000241 ± 3.4e-05 s⁻¹ | 0.000456 ± 0.00011 s⁻¹ | 8.02e-05 ± 2.9e-05 s⁻¹ |  |
| C50G G60A | 4.61e-05 ± 2.1e-05 s⁻¹ |  |  | 4.5e-05 ± 1.8e-05 s⁻¹ |  | 7.6e-05 ± 1.9e-05 s⁻¹ |  |
| G40A G41A U55G | 8.3e-05 ± 7.3e-06 s⁻¹ | 578 ± 220 µM | 4.12e-05 ± 1.4e-05 s⁻¹ | 7.85e-05 ± 2.1e-05 s⁻¹ | 7.52e-05 ± 1.5e-05 s⁻¹ |  |  |
| G37A A48C | 1.56e-05 ± 6e-07 s⁻¹ | 1270 ± 290 µM |  |  |  | < 1e-05 s⁻¹ |  |
| G43A C67U | 0.000171 ± 1.4e-05 s⁻¹ | 1110 ± 320 µM | 6.14e-05 ± 9.1e-06 s⁻¹ | 0.000189 ± 4.2e-05 s⁻¹ | 0.000152 ± 9.9e-06 s⁻¹ |  |  |
| A12U G44A | 0.00153 ± 0.00047 s⁻¹ | 2200 ± 960 µM | 0.000437 ± 5.9e-05 s⁻¹ | 0.00103 ± 0.00013 s⁻¹ | 0.000973 ± 0.0002 s⁻¹ | 8.78e-05 ± 1.3e-05 s⁻¹ |  |
| A39U G66U | 0.0039 ± 0.0011 s⁻¹ | 2010 ± 860 µM | 0.000735 ± 8.7e-05 s⁻¹ | 0.0018 ± 0.00025 s⁻¹ | 0.00372 ± 0.00032 s⁻¹ | 0.000292 ± 5.6e-05 s⁻¹ | 0.000107 ± 1e-05 s⁻¹ |
| A15G A48C | 0.000466 ± 1.6e-05 s⁻¹ | 2830 ± 210 µM | 9.04e-05 ± 1.7e-05 s⁻¹ | 0.000212 ± 3.2e-05 s⁻¹ | 0.000365 ± 3.6e-05 s⁻¹ | 2.29e-05 ± 1.1e-05 s⁻¹ |  |
| U54A C58G | 0.000169 ± 2.8e-05 s⁻¹ | 3660 ± 1700 µM |  | 7.4e-05 ± 2.3e-05 s⁻¹ | 0.000123 ± 2.1e-05 s⁻¹ |  | < 1e-05 s⁻¹ |
